For the data set, the target named is Complement factor H (CFH) (human, UniProt P08603 19-1231). Put plainly: interdigitated electrode current-volt sandwich assay.
Complement factor H (CFH), sequence (P08603 19-1231): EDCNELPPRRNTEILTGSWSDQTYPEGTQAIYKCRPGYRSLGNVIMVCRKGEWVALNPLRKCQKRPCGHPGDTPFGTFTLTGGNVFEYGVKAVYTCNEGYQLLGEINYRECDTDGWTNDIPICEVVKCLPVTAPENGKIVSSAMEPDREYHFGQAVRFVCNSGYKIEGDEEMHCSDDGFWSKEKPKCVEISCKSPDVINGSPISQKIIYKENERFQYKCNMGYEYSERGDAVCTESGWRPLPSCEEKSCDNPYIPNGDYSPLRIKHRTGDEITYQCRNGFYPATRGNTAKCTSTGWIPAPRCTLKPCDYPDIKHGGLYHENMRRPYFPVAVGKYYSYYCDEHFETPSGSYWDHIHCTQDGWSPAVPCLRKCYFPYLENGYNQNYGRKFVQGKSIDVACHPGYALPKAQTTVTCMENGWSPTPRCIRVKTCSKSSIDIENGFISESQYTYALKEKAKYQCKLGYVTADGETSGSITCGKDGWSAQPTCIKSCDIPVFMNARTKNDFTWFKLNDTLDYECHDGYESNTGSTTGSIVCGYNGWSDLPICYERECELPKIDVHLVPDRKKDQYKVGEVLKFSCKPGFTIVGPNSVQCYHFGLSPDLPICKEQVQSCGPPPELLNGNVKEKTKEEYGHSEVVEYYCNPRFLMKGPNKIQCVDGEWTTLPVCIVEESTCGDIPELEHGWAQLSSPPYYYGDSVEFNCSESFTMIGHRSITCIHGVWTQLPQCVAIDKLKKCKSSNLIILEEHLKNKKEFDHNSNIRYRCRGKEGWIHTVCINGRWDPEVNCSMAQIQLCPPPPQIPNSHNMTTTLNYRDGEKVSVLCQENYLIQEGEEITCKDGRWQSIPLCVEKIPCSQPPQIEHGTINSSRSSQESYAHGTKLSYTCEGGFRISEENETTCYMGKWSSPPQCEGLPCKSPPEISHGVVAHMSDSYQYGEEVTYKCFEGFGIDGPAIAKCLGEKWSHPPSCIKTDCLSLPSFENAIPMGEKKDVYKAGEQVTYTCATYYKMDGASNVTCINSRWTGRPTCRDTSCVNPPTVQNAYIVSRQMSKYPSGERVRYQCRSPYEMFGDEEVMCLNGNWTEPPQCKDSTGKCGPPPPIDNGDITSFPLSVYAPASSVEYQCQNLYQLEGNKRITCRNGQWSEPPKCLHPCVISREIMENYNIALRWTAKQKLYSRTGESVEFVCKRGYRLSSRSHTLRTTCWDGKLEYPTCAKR

As for GCGGAGCGTGGCAGG (ssDNA, biotin (end not stated)) [anti-tau DNA aptamer], the binding result was “no binding”.

Values taken from article PMC11415702.
